T1: FcγRIIb extracellular domain with C-terminal His tag (human, UniProt P31994 43-217)
T1 construct: extracellular domain; expressed in FreeStyle293 cells; analyte in the Biacore assay; also called FcgRIIb; 2b; not shown: His tag at the C terminus
T1 sequence (looked up): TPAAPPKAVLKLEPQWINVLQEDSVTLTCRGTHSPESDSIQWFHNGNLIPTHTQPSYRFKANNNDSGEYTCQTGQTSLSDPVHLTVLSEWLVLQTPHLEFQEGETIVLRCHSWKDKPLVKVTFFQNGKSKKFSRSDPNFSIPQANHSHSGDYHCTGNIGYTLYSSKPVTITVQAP


Each binder was assayed against T1, FcγRIIb extracellular domain with … (assay: SPR (Biacore), captured antibody, FcγRIIb analyte; binding relative to GpH7-B3/GpL16-k0 = 100).

Binder | Ho/Con_2b
GpH7-B3 variant S337_16H/GpL16-k0 (antibody, human IgG1, kappa, homodimerized; mutation in both H chains; also called Ho Ab S337_16H) heavy: not shown light: DIVMTQSPLSLPVTPGEPASISCQASESLVHSNRNTYLHWYLQKPGQSPQLLIYKVSNRFSGVPDRFSGSGSGTDFTLKISRVEAEDVGVYYCSQNTHVPPTFGQGTKVEIERTVAAPSVFIFPPSDEQLKSGTASVVCLLNNFYPREAKVQWKVDNALQSGNSQESVTEQDSKDSTYSLSSTLTLSKADYEKHKVYACEVTHQGLSSPVTKSFNRGEC | 103 % of control
GpH7-B3 variant T335_15Y/GpL16-k0 (antibody, human IgG1, kappa, homodimerized; mutation in both H chains; also called Ho Ab T335_15Y) heavy: not shown light: DIVMTQSPLSLPVTPGEPASISCQASESLVHSNRNTYLHWYLQKPGQSPQLLIYKVSNRFSGVPDRFSGSGSGTDFTLKISRVEAEDVGVYYCSQNTHVPPTFGQGTKVEIERTVAAPSVFIFPPSDEQLKSGTASVVCLLNNFYPREAKVQWKVDNALQSGNSQESVTEQDSKDSTYSLSSTLTLSKADYEKHKVYACEVTHQGLSSPVTKSFNRGEC | 104 % of control
GpH7-B3 variant T335_07I/GpL16-k0 (antibody, human IgG1, kappa, homodimerized; mutation in both H chains; also called Ho Ab T335_07I) heavy: not shown light: DIVMTQSPLSLPVTPGEPASISCQASESLVHSNRNTYLHWYLQKPGQSPQLLIYKVSNRFSGVPDRFSGSGSGTDFTLKISRVEAEDVGVYYCSQNTHVPPTFGQGTKVEIERTVAAPSVFIFPPSDEQLKSGTASVVCLLNNFYPREAKVQWKVDNALQSGNSQESVTEQDSKDSTYSLSSTLTLSKADYEKHKVYACEVTHQGLSSPVTKSFNRGEC | 104 % of control
GpH7-B3 variant Y296_20W/GpL16-k0 (antibody, human IgG1, kappa, homodimerized; mutation in both H chains; also called Ho Ab Y296_20W) heavy: not shown light: DIVMTQSPLSLPVTPGEPASISCQASESLVHSNRNTYLHWYLQKPGQSPQLLIYKVSNRFSGVPDRFSGSGSGTDFTLKISRVEAEDVGVYYCSQNTHVPPTFGQGTKVEIERTVAAPSVFIFPPSDEQLKSGTASVVCLLNNFYPREAKVQWKVDNALQSGNSQESVTEQDSKDSTYSLSSTLTLSKADYEKHKVYACEVTHQGLSSPVTKSFNRGEC | 103 % of control
GpH7-B3 variant T335_10E/GpL16-k0 (antibody, human IgG1, kappa, homodimerized; mutation in both H chains; also called Ho Ab T335_10E) heavy: not shown light: DIVMTQSPLSLPVTPGEPASISCQASESLVHSNRNTYLHWYLQKPGQSPQLLIYKVSNRFSGVPDRFSGSGSGTDFTLKISRVEAEDVGVYYCSQNTHVPPTFGQGTKVEIERTVAAPSVFIFPPSDEQLKSGTASVVCLLNNFYPREAKVQWKVDNALQSGNSQESVTEQDSKDSTYSLSSTLTLSKADYEKHKVYACEVTHQGLSSPVTKSFNRGEC | 108 % of control
GpH7-B3 variant V266_06M/GpL16-k0 (antibody, human IgG1, kappa, homodimerized; mutation in both H chains; also called Ho Ab V266_06M) heavy: not shown light: DIVMTQSPLSLPVTPGEPASISCQASESLVHSNRNTYLHWYLQKPGQSPQLLIYKVSNRFSGVPDRFSGSGSGTDFTLKISRVEAEDVGVYYCSQNTHVPPTFGQGTKVEIERTVAAPSVFIFPPSDEQLKSGTASVVCLLNNFYPREAKVQWKVDNALQSGNSQESVTEQDSKDSTYSLSSTLTLSKADYEKHKVYACEVTHQGLSSPVTKSFNRGEC | 231 % of control

Each binder was assayed against T1, FcγRIIb extracellular domain with … (assay: SPR (Biacore), captured antibody, FcγRIIb analyte; binding relative to GpH7-A5/GpH7-B3/GpL16-k0 = 100).

Binder | He/Con_2b
GpH7-A5/GpH7-B3 variant K326_07I/GpL16-k0 (antibody, human IgG1, kappa, heterodimerized; mutation in the B3 H chain only; also called He Ab K326_07I) heavy 1: not shown heavy 2: not shown light: DIVMTQSPLSLPVTPGEPASISCQASESLVHSNRNTYLHWYLQKPGQSPQLLIYKVSNRFSGVPDRFSGSGSGTDFTLKISRVEAEDVGVYYCSQNTHVPPTFGQGTKVEIERTVAAPSVFIFPPSDEQLKSGTASVVCLLNNFYPREAKVQWKVDNALQSGNSQESVTEQDSKDSTYSLSSTLTLSKADYEKHKVYACEVTHQGLSSPVTKSFNRGEC | 199 % of control
GpH7-A5/GpH7-B3 variant H268_13S/GpL16-k0 (antibody, human IgG1, kappa, heterodimerized; mutation in the B3 H chain only; also called He Ab H268_13S) heavy 1: not shown heavy 2: not shown light: DIVMTQSPLSLPVTPGEPASISCQASESLVHSNRNTYLHWYLQKPGQSPQLLIYKVSNRFSGVPDRFSGSGSGTDFTLKISRVEAEDVGVYYCSQNTHVPPTFGQGTKVEIERTVAAPSVFIFPPSDEQLKSGTASVVCLLNNFYPREAKVQWKVDNALQSGNSQESVTEQDSKDSTYSLSSTLTLSKADYEKHKVYACEVTHQGLSSPVTKSFNRGEC | 160 % of control
GpH7-A5/GpH7-B3 variant G236_10E/GpL16-k0 (antibody, human IgG1, kappa, heterodimerized; mutation in the B3 H chain only; also called He Ab G236_10E) heavy 1: not shown heavy 2: not shown light: DIVMTQSPLSLPVTPGEPASISCQASESLVHSNRNTYLHWYLQKPGQSPQLLIYKVSNRFSGVPDRFSGSGSGTDFTLKISRVEAEDVGVYYCSQNTHVPPTFGQGTKVEIERTVAAPSVFIFPPSDEQLKSGTASVVCLLNNFYPREAKVQWKVDNALQSGNSQESVTEQDSKDSTYSLSSTLTLSKADYEKHKVYACEVTHQGLSSPVTKSFNRGEC | 110 % of control
GpH7-A5/GpH7-B3 variant H268_18N/GpL16-k0 (antibody, human IgG1, kappa, heterodimerized; mutation in the B3 H chain only; also called He Ab H268_18N) heavy 1: not shown heavy 2: not shown light: DIVMTQSPLSLPVTPGEPASISCQASESLVHSNRNTYLHWYLQKPGQSPQLLIYKVSNRFSGVPDRFSGSGSGTDFTLKISRVEAEDVGVYYCSQNTHVPPTFGQGTKVEIERTVAAPSVFIFPPSDEQLKSGTASVVCLLNNFYPREAKVQWKVDNALQSGNSQESVTEQDSKDSTYSLSSTLTLSKADYEKHKVYACEVTHQGLSSPVTKSFNRGEC | 156 % of control
GpH7-A5/GpH7-B3 variant A327_09D/GpL16-k0 (antibody, human IgG1, kappa, heterodimerized; mutation in the B3 H chain only; also called He Ab A327_09D) heavy 1: not shown heavy 2: not shown light: DIVMTQSPLSLPVTPGEPASISCQASESLVHSNRNTYLHWYLQKPGQSPQLLIYKVSNRFSGVPDRFSGSGSGTDFTLKISRVEAEDVGVYYCSQNTHVPPTFGQGTKVEIERTVAAPSVFIFPPSDEQLKSGTASVVCLLNNFYPREAKVQWKVDNALQSGNSQESVTEQDSKDSTYSLSSTLTLSKADYEKHKVYACEVTHQGLSSPVTKSFNRGEC | 172 % of control
GpH7-A5/GpH7-B3 variant G237_04F/GpL16-k0 (antibody, human IgG1, kappa, heterodimerized; mutation in the B3 H chain only; also called He Ab G237_04F) heavy 1: not shown heavy 2: not shown light: DIVMTQSPLSLPVTPGEPASISCQASESLVHSNRNTYLHWYLQKPGQSPQLLIYKVSNRFSGVPDRFSGSGSGTDFTLKISRVEAEDVGVYYCSQNTHVPPTFGQGTKVEIERTVAAPSVFIFPPSDEQLKSGTASVVCLLNNFYPREAKVQWKVDNALQSGNSQESVTEQDSKDSTYSLSSTLTLSKADYEKHKVYACEVTHQGLSSPVTKSFNRGEC | 149 % of control
GpH7-A5/GpH7-B3 variant I332_04F/GpL16-k0 (antibody, human IgG1, kappa, heterodimerized; mutation in the B3 H chain only; also called He Ab I332_04F) heavy 1: not shown heavy 2: not shown light: DIVMTQSPLSLPVTPGEPASISCQASESLVHSNRNTYLHWYLQKPGQSPQLLIYKVSNRFSGVPDRFSGSGSGTDFTLKISRVEAEDVGVYYCSQNTHVPPTFGQGTKVEIERTVAAPSVFIFPPSDEQLKSGTASVVCLLNNFYPREAKVQWKVDNALQSGNSQESVTEQDSKDSTYSLSSTLTLSKADYEKHKVYACEVTHQGLSSPVTKSFNRGEC | 104 % of control
GpH7-A5/GpH7-B3 variant A327_10E/GpL16-k0 (antibody, human IgG1, kappa, heterodimerized; mutation in the B3 H chain only; also called He Ab A327_10E) heavy 1: not shown heavy 2: not shown light: DIVMTQSPLSLPVTPGEPASISCQASESLVHSNRNTYLHWYLQKPGQSPQLLIYKVSNRFSGVPDRFSGSGSGTDFTLKISRVEAEDVGVYYCSQNTHVPPTFGQGTKVEIERTVAAPSVFIFPPSDEQLKSGTASVVCLLNNFYPREAKVQWKVDNALQSGNSQESVTEQDSKDSTYSLSSTLTLSKADYEKHKVYACEVTHQGLSSPVTKSFNRGEC | 140 % of control
GpH7-A5/GpH7-B3 variant H268_09D/GpL16-k0 (antibody, human IgG1, kappa, heterodimerized; mutation in the B3 H chain only; also called He Ab H268_09D) heavy 1: not shown heavy 2: not shown light: DIVMTQSPLSLPVTPGEPASISCQASESLVHSNRNTYLHWYLQKPGQSPQLLIYKVSNRFSGVPDRFSGSGSGTDFTLKISRVEAEDVGVYYCSQNTHVPPTFGQGTKVEIERTVAAPSVFIFPPSDEQLKSGTASVVCLLNNFYPREAKVQWKVDNALQSGNSQESVTEQDSKDSTYSLSSTLTLSKADYEKHKVYACEVTHQGLSSPVTKSFNRGEC | 239 % of control
GpH7-A5/GpH7-B3 variant H268_01G/GpL16-k0 (antibody, human IgG1, kappa, heterodimerized; mutation in the B3 H chain only; also called He Ab H268_01G) heavy 1: not shown heavy 2: not shown light: DIVMTQSPLSLPVTPGEPASISCQASESLVHSNRNTYLHWYLQKPGQSPQLLIYKVSNRFSGVPDRFSGSGSGTDFTLKISRVEAEDVGVYYCSQNTHVPPTFGQGTKVEIERTVAAPSVFIFPPSDEQLKSGTASVVCLLNNFYPREAKVQWKVDNALQSGNSQESVTEQDSKDSTYSLSSTLTLSKADYEKHKVYACEVTHQGLSSPVTKSFNRGEC | 144 % of control
GpH7-A5/GpH7-B3 variant G236_09D/GpL16-k0 (antibody, human IgG1, kappa, heterodimerized; mutation in the B3 H chain only; also called He Ab G236_09D) heavy 1: not shown heavy 2: not shown light: DIVMTQSPLSLPVTPGEPASISCQASESLVHSNRNTYLHWYLQKPGQSPQLLIYKVSNRFSGVPDRFSGSGSGTDFTLKISRVEAEDVGVYYCSQNTHVPPTFGQGTKVEIERTVAAPSVFIFPPSDEQLKSGTASVVCLLNNFYPREAKVQWKVDNALQSGNSQESVTEQDSKDSTYSLSSTLTLSKADYEKHKVYACEVTHQGLSSPVTKSFNRGEC | 167 % of control
GpH7-A5/GpH7-B3 variant I332_06M/GpL16-k0 (antibody, human IgG1, kappa, heterodimerized; mutation in the B3 H chain only; also called He Ab I332_06M) heavy 1: not shown heavy 2: not shown light: DIVMTQSPLSLPVTPGEPASISCQASESLVHSNRNTYLHWYLQKPGQSPQLLIYKVSNRFSGVPDRFSGSGSGTDFTLKISRVEAEDVGVYYCSQNTHVPPTFGQGTKVEIERTVAAPSVFIFPPSDEQLKSGTASVVCLLNNFYPREAKVQWKVDNALQSGNSQESVTEQDSKDSTYSLSSTLTLSKADYEKHKVYACEVTHQGLSSPVTKSFNRGEC | 105 % of control
GpH7-A5/GpH7-B3 variant G237_20W/GpL16-k0 (antibody, human IgG1, kappa, heterodimerized; mutation in the B3 H chain only; also called He Ab G237_20W) heavy 1: not shown heavy 2: not shown light: DIVMTQSPLSLPVTPGEPASISCQASESLVHSNRNTYLHWYLQKPGQSPQLLIYKVSNRFSGVPDRFSGSGSGTDFTLKISRVEAEDVGVYYCSQNTHVPPTFGQGTKVEIERTVAAPSVFIFPPSDEQLKSGTASVVCLLNNFYPREAKVQWKVDNALQSGNSQESVTEQDSKDSTYSLSSTLTLSKADYEKHKVYACEVTHQGLSSPVTKSFNRGEC | 193 % of control
GpH7-A5/GpH7-B3 variant A330_01G/GpL16-k0 (antibody, human IgG1, kappa, heterodimerized; mutation in the B3 H chain only; also called He Ab A330_01G) heavy 1: not shown heavy 2: not shown light: DIVMTQSPLSLPVTPGEPASISCQASESLVHSNRNTYLHWYLQKPGQSPQLLIYKVSNRFSGVPDRFSGSGSGTDFTLKISRVEAEDVGVYYCSQNTHVPPTFGQGTKVEIERTVAAPSVFIFPPSDEQLKSGTASVVCLLNNFYPREAKVQWKVDNALQSGNSQESVTEQDSKDSTYSLSSTLTLSKADYEKHKVYACEVTHQGLSSPVTKSFNRGEC | 104 % of control
GpH7-A5/GpH7-B3 variant H268_10E/GpL16-k0 (antibody, human IgG1, kappa, heterodimerized; mutation in the B3 H chain only; also called He Ab H268_10E) heavy 1: not shown heavy 2: not shown light: DIVMTQSPLSLPVTPGEPASISCQASESLVHSNRNTYLHWYLQKPGQSPQLLIYKVSNRFSGVPDRFSGSGSGTDFTLKISRVEAEDVGVYYCSQNTHVPPTFGQGTKVEIERTVAAPSVFIFPPSDEQLKSGTASVVCLLNNFYPREAKVQWKVDNALQSGNSQESVTEQDSKDSTYSLSSTLTLSKADYEKHKVYACEVTHQGLSSPVTKSFNRGEC | 230 % of control

Source: patent US20180155451A1 (published 2018)
